Measured values reported in PMC3573756.

Key:
[1] = molecular target: cardiac ryanodine receptor (RyR2) (rat (endogenous in rat ventricular myocytes)) (UniProt B0LPN4); assay: FRET or BRET
[2] = molecular target: cardiac ryanodine receptor (RyR2) (rat (endogenous in rat ventricular myocytes)) (UniProt B0LPN4); assay: FRET or BRET; remark: listed apart in the source
[3] = molecular target: cardiac ryanodine receptor (RyR2) (rat (endogenous in rat ventricular myocytes)) (UniProt B0LPN4); assay: confocal fluorescence wash-in and wash-out kinetics
[4] = molecular target: cardiac ryanodine receptor (RyR2) (rat (endogenous in rat ventricular myocytes)) (UniProt B0LPN4); assay: other fluorescence titration

Sequence of UniProt B0LPN4 (B0LPN4 whole entry): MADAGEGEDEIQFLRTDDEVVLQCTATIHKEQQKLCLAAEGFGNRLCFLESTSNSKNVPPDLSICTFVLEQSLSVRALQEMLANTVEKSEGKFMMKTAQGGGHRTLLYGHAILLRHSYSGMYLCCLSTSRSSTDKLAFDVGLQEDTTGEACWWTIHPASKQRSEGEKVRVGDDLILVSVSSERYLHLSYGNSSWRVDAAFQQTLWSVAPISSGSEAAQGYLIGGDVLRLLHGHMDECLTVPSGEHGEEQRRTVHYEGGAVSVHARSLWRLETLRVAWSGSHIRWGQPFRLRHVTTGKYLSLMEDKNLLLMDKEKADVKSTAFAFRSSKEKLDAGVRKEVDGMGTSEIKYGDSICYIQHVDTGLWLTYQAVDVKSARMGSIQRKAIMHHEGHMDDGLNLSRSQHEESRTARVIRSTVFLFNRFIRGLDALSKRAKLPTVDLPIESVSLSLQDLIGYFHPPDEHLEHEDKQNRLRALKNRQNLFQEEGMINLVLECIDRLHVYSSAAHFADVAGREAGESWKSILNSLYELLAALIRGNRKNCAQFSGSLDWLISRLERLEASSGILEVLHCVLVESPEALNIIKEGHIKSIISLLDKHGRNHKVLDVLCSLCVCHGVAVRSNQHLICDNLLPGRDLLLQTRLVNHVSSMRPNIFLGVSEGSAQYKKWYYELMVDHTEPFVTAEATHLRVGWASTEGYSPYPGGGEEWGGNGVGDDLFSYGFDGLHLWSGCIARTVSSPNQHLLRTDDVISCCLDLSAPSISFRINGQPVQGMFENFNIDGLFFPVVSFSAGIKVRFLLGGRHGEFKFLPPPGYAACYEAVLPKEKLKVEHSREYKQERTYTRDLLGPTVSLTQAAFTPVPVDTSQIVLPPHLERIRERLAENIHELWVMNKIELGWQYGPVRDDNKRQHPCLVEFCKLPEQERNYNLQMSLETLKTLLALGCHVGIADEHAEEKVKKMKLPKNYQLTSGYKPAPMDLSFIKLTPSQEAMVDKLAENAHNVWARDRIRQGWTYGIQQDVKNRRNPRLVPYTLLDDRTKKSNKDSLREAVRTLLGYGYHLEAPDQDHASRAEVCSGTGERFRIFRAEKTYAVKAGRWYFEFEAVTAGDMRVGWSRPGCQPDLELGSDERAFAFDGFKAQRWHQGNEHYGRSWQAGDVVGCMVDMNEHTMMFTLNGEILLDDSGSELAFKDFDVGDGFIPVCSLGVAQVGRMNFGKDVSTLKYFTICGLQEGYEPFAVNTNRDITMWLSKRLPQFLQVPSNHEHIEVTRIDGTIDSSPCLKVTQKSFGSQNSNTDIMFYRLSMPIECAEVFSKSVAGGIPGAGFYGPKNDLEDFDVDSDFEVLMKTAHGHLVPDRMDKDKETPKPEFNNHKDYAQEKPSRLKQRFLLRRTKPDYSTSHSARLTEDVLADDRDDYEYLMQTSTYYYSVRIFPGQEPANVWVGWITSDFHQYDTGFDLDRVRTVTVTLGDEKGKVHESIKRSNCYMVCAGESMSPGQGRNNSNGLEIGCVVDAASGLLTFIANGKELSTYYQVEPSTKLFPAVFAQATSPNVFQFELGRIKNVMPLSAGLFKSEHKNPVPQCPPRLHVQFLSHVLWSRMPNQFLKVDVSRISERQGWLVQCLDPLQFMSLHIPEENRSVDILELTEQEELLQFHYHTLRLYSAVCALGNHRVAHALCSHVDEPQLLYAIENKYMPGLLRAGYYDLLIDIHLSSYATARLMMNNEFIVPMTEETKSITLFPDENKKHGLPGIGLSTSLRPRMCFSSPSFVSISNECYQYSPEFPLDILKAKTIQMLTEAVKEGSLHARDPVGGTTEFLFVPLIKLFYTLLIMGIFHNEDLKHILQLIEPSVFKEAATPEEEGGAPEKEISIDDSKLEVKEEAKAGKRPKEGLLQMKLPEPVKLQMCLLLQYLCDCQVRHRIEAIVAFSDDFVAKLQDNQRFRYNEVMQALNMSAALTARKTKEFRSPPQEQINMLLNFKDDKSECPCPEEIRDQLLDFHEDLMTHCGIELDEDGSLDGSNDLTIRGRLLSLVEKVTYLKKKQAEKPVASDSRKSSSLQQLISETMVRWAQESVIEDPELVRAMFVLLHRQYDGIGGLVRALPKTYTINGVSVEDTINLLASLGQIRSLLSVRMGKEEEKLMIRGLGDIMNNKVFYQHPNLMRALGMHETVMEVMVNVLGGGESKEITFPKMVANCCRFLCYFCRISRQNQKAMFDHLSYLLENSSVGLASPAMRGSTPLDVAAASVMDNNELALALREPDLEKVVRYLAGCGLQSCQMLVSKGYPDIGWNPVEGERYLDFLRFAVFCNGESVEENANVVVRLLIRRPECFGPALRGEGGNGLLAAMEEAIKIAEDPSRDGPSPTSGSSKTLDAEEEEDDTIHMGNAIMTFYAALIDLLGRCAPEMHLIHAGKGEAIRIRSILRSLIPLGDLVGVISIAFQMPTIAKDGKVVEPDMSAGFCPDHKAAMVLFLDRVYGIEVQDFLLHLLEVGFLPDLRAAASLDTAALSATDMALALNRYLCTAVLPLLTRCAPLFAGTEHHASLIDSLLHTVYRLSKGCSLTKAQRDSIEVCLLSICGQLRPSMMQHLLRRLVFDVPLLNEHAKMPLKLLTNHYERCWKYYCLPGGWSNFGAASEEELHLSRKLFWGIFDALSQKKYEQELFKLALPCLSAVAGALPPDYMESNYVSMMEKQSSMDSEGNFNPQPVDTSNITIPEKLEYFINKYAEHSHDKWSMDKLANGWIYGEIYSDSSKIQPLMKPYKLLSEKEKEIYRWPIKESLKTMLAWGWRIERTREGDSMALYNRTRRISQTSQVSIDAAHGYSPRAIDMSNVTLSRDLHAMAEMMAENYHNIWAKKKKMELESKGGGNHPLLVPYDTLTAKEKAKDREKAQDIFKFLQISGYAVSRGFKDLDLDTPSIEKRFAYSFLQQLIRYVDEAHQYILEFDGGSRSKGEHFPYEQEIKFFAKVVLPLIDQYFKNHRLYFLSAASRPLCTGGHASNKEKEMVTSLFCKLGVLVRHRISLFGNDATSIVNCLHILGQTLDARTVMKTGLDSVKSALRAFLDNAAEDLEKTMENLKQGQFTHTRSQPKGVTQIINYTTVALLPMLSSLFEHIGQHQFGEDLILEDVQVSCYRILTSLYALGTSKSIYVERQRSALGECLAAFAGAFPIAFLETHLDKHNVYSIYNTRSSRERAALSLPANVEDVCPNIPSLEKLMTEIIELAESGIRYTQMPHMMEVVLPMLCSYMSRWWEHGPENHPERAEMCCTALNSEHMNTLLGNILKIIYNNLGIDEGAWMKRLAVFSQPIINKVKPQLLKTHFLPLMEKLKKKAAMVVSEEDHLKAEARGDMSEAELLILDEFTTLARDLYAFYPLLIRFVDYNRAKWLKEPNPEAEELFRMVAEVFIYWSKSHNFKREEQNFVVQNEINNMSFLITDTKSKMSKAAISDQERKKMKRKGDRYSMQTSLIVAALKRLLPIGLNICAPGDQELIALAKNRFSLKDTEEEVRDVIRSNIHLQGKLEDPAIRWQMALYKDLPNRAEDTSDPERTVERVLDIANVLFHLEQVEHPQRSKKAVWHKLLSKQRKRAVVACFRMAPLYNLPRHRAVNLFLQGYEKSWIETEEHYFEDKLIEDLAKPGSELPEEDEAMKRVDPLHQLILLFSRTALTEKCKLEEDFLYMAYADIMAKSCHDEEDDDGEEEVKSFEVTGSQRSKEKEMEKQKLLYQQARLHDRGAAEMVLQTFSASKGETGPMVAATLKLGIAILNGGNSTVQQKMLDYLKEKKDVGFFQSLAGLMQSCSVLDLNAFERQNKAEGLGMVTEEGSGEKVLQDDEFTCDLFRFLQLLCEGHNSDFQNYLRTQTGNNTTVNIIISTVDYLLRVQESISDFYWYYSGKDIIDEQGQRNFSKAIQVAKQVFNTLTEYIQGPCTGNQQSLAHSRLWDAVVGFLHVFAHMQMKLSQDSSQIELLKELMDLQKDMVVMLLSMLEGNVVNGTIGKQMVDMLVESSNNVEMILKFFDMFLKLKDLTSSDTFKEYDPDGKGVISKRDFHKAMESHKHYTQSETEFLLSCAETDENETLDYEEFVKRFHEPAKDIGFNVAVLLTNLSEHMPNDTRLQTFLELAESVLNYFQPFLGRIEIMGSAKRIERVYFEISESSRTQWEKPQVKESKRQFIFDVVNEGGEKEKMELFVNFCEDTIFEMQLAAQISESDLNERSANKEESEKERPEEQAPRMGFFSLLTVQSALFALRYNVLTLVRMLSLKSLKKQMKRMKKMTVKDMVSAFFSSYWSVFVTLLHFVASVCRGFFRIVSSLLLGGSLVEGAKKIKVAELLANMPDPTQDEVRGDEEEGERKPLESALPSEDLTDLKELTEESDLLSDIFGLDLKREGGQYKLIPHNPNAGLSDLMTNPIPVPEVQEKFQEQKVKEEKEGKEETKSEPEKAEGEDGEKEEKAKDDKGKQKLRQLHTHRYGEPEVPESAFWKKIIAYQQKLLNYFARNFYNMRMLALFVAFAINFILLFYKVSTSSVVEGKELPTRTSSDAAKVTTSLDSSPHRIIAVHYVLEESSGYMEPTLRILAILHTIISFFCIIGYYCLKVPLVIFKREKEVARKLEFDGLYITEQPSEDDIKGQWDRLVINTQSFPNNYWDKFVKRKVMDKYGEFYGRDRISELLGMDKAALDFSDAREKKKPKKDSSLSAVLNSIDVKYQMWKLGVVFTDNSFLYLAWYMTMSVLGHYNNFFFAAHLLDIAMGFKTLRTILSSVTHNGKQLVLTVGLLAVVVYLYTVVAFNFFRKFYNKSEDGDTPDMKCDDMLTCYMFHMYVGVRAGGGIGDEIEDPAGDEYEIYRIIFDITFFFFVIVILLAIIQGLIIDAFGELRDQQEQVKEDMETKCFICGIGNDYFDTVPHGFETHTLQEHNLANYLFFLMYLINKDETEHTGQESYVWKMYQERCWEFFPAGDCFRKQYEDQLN

Substance | Kd [1] | Kd [2] | fold faster association after pre-saturation with NF-DPc10 against control [3] | percent faster τ (wash-in) with ryanodine plus caffeine against control [3] | Kd [4] | stoichiometry N (DPc10 per RyR2 monomer) [4]
DPc10 labeled with HiLyte Fluor 647 on the N-terminus (HF647-DPc10) (peptide) | 450 nM | 610 nM |  |  |  | 
DPc10 labeled with 5-carboxyfluorescein at its N-terminus (F-DPc10) (peptide) |  |  | 2 fold | 21% | 480 nM | 1
